In patent US20240026407A1, “MODIFICATION OF SAPONINS” (GLAXOSMITHKLINE BIOLOGICALS SA, priority 2020, published 2024):

Tests used:
Assay type in all cases: biochemical, Quillaja saponaria
[1] = Experiment 4-4: screening of glucosidases for deglycosylation of QS-18 in crude bark extract (1 in 20 dilution) to QS-21; conditions: CBE 1 in 20 dilution, pH 6, 25 degC, 18 hours; % conversion of Middle Peak by UV HPLC
Description: Lysates were prepared as in Experiment 4-2.
Crude bark extract (CBE) was adjusted to pH 6 by dropwise addition of 2M NaOH with stirring. 25 uL of clarified lysate was transferred to a reaction plate, 22.5 ul of 100 mM potassium phosphate buffer pH 6 was added, 2.5 ul CBE at pH 6 was added. Reaction plates were sealed, incubated at 25 degC with shaking for 18 hours, then quenched by addition of 50 uL acetonitrile (MeCN). Quenched reaction plates were re-sealed and incubated at 20 degC with shaking for 10 min. The reaction plates were centrifuged (10 min, 4 degC) and analysed by UV HPLC with the method below:
Three key peaks of interest are apparent using this chromatography: Left Peak (retention time approximately 2.30-2.35 min) comprising mainly QS-17 family components; Middle Peak (retention time approximately 2.37-2.42 min) comprising mainly QS-18 family components and desglucosyl-QS-17 family components; and Right Peak (retention time approximately 2.44-2.50 min) comprising mainly QS-21 family components. Peak identity was supported by MS/MS.
Enzyme activity is calculated as the % conversion of the Middle Peak present in the crude bark extract: […]

[2] = Experiment 4-1: screening of glucosidases for deglycosylation with purified QS-18 (0.04 mg/ml) at pH 7.5 and room temperature; conditions: pH 7.5, room temperature, 20 h, clarified E. coli lysate, QS-18 2150 to QS-21 1988 by LCMS/MS
In short: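 Deglycosylation measured by LC-MS/MS as % conversion after 20 h room-temperature incubation of QS-18 phenyl fraction (0.04 mg/ml final) with polymyxin B/lysozyme lysates, pH 7.5 phosphate, of E. coli BL21(DE3) expressing each enzyme; MeCN quench. Positives exceeded negative control by >3 S.D.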

[3] = Experiment 4-2: screening of glucosidases for deglycosylation with purified QS-18 (1 mg/ml) at pH 6 and 30 deg C; conditions: pH 6, 30 degC, 18 hrs, clarified lysate, LCMS/MS
In short: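 Enzyme activity derived from LC-MS/MS analysis after MeCN quench. Substrate QS-18 (1 mg/ml final) was exposed overnight (18 h, 30 °C, pH 6 phosphate buffer) to clarified lysates containing candidate glucosidases.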

B1: 350 (protein)
chain: MIDDILDKMTLEEQVSLLSGADFWTTVAIERLGVPKIKVTDGPNGARGGGSLVGGVKSACFPVAIALGATWDPELIERAGVALGGQAKSKGASVLLAPTVNIHRSGLNGRNFECYSEDPALTAACAVAYINGVQSQGVAATIKHFVANESEIERQTMSSDVDERTLREIYLPPFEEAVKKAGVKAVMSSYNKLNGTYTSENPWLLTKVLREEWGFDGVVMSDWFGSHSTAETINAGLDLEMPGPWRDRGEKLVAAVREGKVKAETVRASARRILLLLERVGAFEKAPDLAEHALDLPEDRALIRQLGAEGAVLLKNDGVLPLAKSSFDQIAVIGPNAASARVMGGGSARIAAHYTVSPLEGIRAALSNANSLRHAVGCNNNRLIDVFSGEMTVEYFKGRGFESRPVHVETVEKGEFFWFDLPSGDLDLADFSARMTATFVPQETGEHIFGMTNAGLARLFVDGELVVDGYDGWTKGENFFGTANSEQRRAVTLGAARRYRVVVEYEAPKASLDGINICALRFGVEKPLGDAGIAEAVETARKSDIVLLLVGREGEWDTEGLDLPDMRLPGRQEELIEAVAETNPNVVVVLQTGGPIEMPWLGKVRAVLQMWYPGQELGNALADVLFGDVEPAGRLPQTFPKALTDNSAITDDPSIYPGQDGHVRYAEGIFVGYRHHDTREIEPLFPFGFGLGYTRFTWGAPQLSGTEMGADGLTVTVDVTNIGDRAGSDVVQLYVHSPNARVERPFKELRAFAKLKLAPGATGTAVLKIAPRDLAYFDVEAGRFRADAGKYELIVAASAIDIRASVSIHLPVDHVMEP
modifications: Rhizobium radiobacter
Expt 4-4 % conv [1]: <3% | Expt 4-1 % conv [2]: 2.6% | Expt 4-2 % conv [3]: 0.7%

B2: 234 (protein, listed as Sphingobium chlorophenolicum)
chain: MTFPRSLFLASTILAFHCNPSFARNESPAKAIERADKTLKAMTPEEKTILTHGIMPLKILPNSPEPPAEAIPGAGYIKGIPRLGVPALYETDASLGVSYVFGLRKDGATALPSGLAQASTWNPALIEKAGRMIGAETRAKGFNVLLAGGVNLMRDPRNGRNFEYLGEDPLLAGTLVGHAIRGIQSNHIISTIKHFAFNGQETARKLVDSKISAANAHESDLLAFKIGIEIGDPGSVMCAYNKVNGHSACDNNWLLNTVLKHDWGYKGFVMSDWGAVPSLGAALNGLDQQSGEQLDTAVFFGDTLAAAAKSNPVYAKRLDDMNRRILWAIYNNGLDANPAKPGGVIDFKAHGDIAEQVARQGIVLLRNERGVLPLAASTKRIAVIGGYANSGVLSGAGSSQVQAEGGPAVYIPAGNGDENSSFIAESYHNSVPLKALRAAAPNAEITYRNGRYIAEAVAQAKKSDVAIVFATQWTSEGFDVPDMSLPNGQDALLAAVAAANPNTVVVLETGGPVMMPWLDSTAAVIEAWYPGARGAEAIAAVLTGKVNPSGKLPVTFPAHKDQLPRAEVDGMDSTEPSFLGMPDLKGQALVADYDIEGSNIGYRWNALKGNKALFPFGHGLSYTSFAASGLKTDGARASARITNTGKADGATIAQLYLVSRTGKPARRLVSFQRVELVAGQSKPLAMTIDPRLLGDWRDGNWTIVAGDYGFALGEDAEHLGPVTTVRLKGRTWRD
Expt 4-4 % conv [1]: <3% | Expt 4-1 % conv [2]: 2.5% | Expt 4-2 % conv [3]: 0.7%

B3: 380 (protein, listed as Ogataea parapolymorpha)
chain: MSTFDVDDILSQLHVKEKVQLLSLKDFWHTANIDRLNIPSVRLSDGPNGVRGTKFFRSVPSACFSSGTALAATFNMPLLEQLGKLMAEEARHKGAHVILGPTCNIARGPLGGRGFESFSEDPYLSGIAAAAIIKGIESQGIGATLKHFVCNDLEDERNSIDVILSDRALREIYLLPFQIAIKEANPKCVMSSYNKVMGEHVSQSKKLLTDILRKEWGWDGLTMSDWFGVYSIKSSLDAGLDLECPGYPLMRKHDALIHAISSREINMDVIDIRVRNILKLVQHALKSSIPQNAPEDSENNTPETSALLRKAASEAIVLLKNESSILPLKPSDEIAVIGPNARIPRMYGGGSASVNCYYGISVYDGISNKIGSQPPYSMGCDIARNMFDLGKLASYKGEPGVRIKVYKEAPGTPDRSLIEEFRYDSLQLLLFDYNHEKLDSSLFYFDIEGEFTSDKDMSYDIHLSCLGTALLYINGELFIDDKTNQKMGFAAIGASSLGDTKTIHMKKDERIEFKIEFGSAPTFTLETLDLVASNGGGSLTVAIGEKITDQNRINDAVELAKTADKVILCVGTSSDWESEGFDRPHMDLPKSQGILIEEILKVNKNIILVNLSGTPVTLPWIDEIPAVVHGWFNGMESGNAMADVLYGDVNASGKLSLSWPKRCEDNPSFLNFKSDKGKVVYGEDVFVGYRYYEKVCREPLFAFGYGLSYTAFNFDGLDVKVAADNLVCTLNIKNIGKLRGAEVVQLYVIPPLTTTTVSRPLKEFKGCQKVFLEPGQKITTTISVPIKYACSYFDVERQKWSIESGEYGVFIGNSSDAMDALIGKFVIQKPLLWSGL
Expt 4-4 % conv [1]: <3% | Expt 4-1 % conv [2]: 2.4% | Expt 4-2 % conv [3]: 0.5%

B4: 222 (protein, listed as Marinomonas posidonica)
chain: MTPKDILNALTVEEKARLCTGKDFWHLHGIERLELPSIMVTDGPHGLRKQSGEGDHVGLNASVKATCFPTASGLASSWNPALIEKMGVALGKECRAENVSVLLGPGINIKRNPLGGRNFEYFSEDPLIAGDMSTAWIKGVQSQDVGTSLKHYAVNNHEHCRMTVDAVVDQRTLREIYLPAFEKAIKQSQPWTVMCAYNKINGTYAAEHQQLLDDILVKEWGFEGIVVTDWGANNDRVEGIKHGQHLEMPSSGELNTQKILDAIDSGRLSIAALDKSVLRVLELIVKSQAALNNAPVNVDLERHHTLASKVAEESCVLLKNDQLLPAQKDQNVLVIGALANNTRYQGAGSSKINPFKLEQPLAQIEAVFGTNNVRYSQGYQLNDESDQTMIEDAVAQAEQADVIFLFAGLTPKYESEGFDRQHLNLPQVQLDLIDALGDQLGKTAVILQNGAPVTLPFVDKVPAILEAYLGGQAGASAIAKILAGDVNPSGKLAETFPLSLDDVPSQPYFPGTTKQTQYREAIWVGYRYFAHTAQPVLFPFGHGLTYSEFSFSELRIMDDKLDLKAVSFDEQTRIRLQVTVTNTGDRAGAEVVQCYLGQNKPSQPRPAKELRAYQKVFLEAGQSKCVELELNYRDFAFWCEADSQWRVESDDYHIQIGASVEDIRLTTLITLKTDTPLAPQNATLSAYFTPADRQFNDQSFSALLGKPIPDATPITPYTLNSTLGDIAQTEQGKPLFNAMLSVFSKMMEGDTNDSAAEADKLMAEAMVSDMPLRNLPVFNSQSYSEEALLALLADLNS
Expt 4-4 % conv [1]: <3% | Expt 4-1 % conv [2]: 1.6% | Expt 4-2 % conv [3]: 0.4%

B5: 354 (protein, listed as Chthonomonas calidirosea)
chain: MGKTKRSLKVNRRDFFTLGAATLLAAISLPDGDLLAFAQKEREKDLVYGIRRERFEWAQKKAAALVAQMTREEKISQVGNNVPAIPRLGLPAYNYYSGEALHGLVRGGPVTSFPLPLALANTWNPELQYQVYTAVSDEARAYHNRDGVGLAYYSPQTINTAKDPRWGRIEETLGEDPHLMSLMAVQAVRGMQGDDPNYLKTVACAKHYIANETDNDRTAVSETVDPRSFWEYYVRPFYACVVDGKVFSVMGAYNAVNGIPCCADKNLLTGILRERWGFQGYVTSDCDAIYNIYDPHHYATSLAEACAMGIKAGCDLDCGDTYPRHLGEAFEQHLLEEADLDKAVTRLLTARFLFGDLDPEPRCPYNKIPFSVVDSPKHRALALEAARQSIVLLKNDGILPLDKTALKSVAVIGPTAAIAHLGGYSGAPFLRVSPLSGIAQALGIGIHFDEVYAYQAVRLEGGPQLESSVEQGGTDIGFIKNGSWVEFPATDFAGKNEIEVRVASDTQGGTIEIHLDRLNGPLLCTLQVPHTGGWQNWISLKAPINGVIGKHKLFFLFKGGDGYLLNVAWYRLNPPSPPETHNPNGIALTYQQGCTITGARNDTMFQKAVEAARQADVAIVVAGVNQEVDAEGHDRDDIRLTGAQHELIQAVYQANPKTILVLSTNAPVAVTWEQENLPAIVAAIFAGQAQGTAIADVLFGNYNPSGKLATTWYKSVEDLPDFHDFDITKRTYMYFEGEPLYPFGYGLSYTTFQIGNIQVSHPRLTSGGSITVSVDVTNIGKRAGTEVVQLYVRPPKSPVKRPNKQLVDFKRVELRPGETKRVELSLPYESPALWYWDVAQSKFVLQPGTVTLMVGNSSAHIAHTTTIELV
Expt 4-4 % conv [1]: <3% | Expt 4-1 % conv [2]: 1.6% | Expt 4-2 % conv [3]: 0.5%
